Data on eight compounds can be found in patent US8236762B2, “Peptide-cytotoxic conjugates” (IPSEN Pharma S.A.S., priority 2006, dated 2012).

One series has as its target T1, hSSTR-3 (Homo sapiens, UniProt P32745).
T1 construct: expressed in transfected cells; host or cells: CHO-K1
Nature of the series: Somatostatin receptor radioligand binding, hSSTR-3 (CHO-K1 membranes). The following applies: read-out: Ki hSSTR3 ± (SEM).

The target of another series is T2, hSSTR-4 (Homo sapiens, UniProt P31391).
T2 construct: expressed in transfected cells; host or cells: CHO-K1
T2 sequence (P31391 whole entry): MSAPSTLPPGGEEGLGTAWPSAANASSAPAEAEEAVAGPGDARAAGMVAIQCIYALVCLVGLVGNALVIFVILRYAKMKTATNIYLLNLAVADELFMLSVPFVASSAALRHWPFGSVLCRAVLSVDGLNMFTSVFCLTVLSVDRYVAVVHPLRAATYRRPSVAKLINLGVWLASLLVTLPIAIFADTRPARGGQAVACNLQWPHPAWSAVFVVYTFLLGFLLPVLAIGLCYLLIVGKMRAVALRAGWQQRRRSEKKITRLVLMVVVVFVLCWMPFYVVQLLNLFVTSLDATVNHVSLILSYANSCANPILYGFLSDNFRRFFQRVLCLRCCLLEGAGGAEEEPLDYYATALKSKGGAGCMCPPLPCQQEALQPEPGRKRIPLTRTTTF
Nature of the series: Somatostatin receptor radioligand binding, hSSTR-4 (CHO-K1 membranes). The following applies: read-out: Ki hSSTR4 ± (SEM).

The target of the next series is T3, hSSTR-5 (Homo sapiens, UniProt P35346).
T3 construct: expressed in transfected cells; host or cells: CHO-K1
T3 sequence (P35346 whole entry): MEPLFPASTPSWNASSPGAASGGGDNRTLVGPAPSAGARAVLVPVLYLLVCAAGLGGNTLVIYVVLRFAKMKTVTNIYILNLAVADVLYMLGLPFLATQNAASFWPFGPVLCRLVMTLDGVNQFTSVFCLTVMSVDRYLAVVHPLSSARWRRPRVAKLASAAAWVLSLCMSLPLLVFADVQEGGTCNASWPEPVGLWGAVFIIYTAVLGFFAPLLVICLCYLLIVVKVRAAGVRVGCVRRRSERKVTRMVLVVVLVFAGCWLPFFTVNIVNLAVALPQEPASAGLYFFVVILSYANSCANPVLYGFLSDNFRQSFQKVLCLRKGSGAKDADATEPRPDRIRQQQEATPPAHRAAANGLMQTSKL
Briefly: Somatostatin receptor radioligand binding, hSSTR-5 (CHO-K1 membranes). The following applies: read-out: Ki hSSTR5 ± (SEM).

The target in the next series is T4, hSSTR-2 (Homo sapiens, UniProt P30874).
T4 construct: expressed in transfected cells; host or cells: CHO-K1
T4 sequence (P30874 whole entry): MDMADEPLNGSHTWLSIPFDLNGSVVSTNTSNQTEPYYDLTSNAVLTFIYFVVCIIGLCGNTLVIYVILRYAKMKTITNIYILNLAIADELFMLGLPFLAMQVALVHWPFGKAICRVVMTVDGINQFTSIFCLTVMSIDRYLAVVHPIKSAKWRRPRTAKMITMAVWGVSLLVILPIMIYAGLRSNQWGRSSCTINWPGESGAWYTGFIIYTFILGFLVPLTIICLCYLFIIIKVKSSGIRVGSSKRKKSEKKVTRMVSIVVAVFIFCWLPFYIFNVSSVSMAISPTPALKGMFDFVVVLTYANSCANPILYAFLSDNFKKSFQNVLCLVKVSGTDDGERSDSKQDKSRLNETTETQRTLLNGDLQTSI
Briefly: Somatostatin receptor radioligand binding, hSSTR-2 (CHO-K1 membranes). The following applies: read-out: Ki hSSTR2 ± (SEM).

Series [1] can be described thus: Half-life determination in human plasma (LC-MS). Format: in vitro ADME. The following applies: 37° C. As to the method:
(§1) Samples containing approximately 50 μg/ml up to and including approximately 500 μg/ml of test compound according to Formula IA or IB or II was added to 450 μl human or mouse plasma, vortexed briefly and incubated at 37° C. At various time intervals, e.g., 0, 0.5, 1, 2, 4, 6, 8, 24, 36 and 48 hours, 50 μl of the compound-plasma mixture was added to 150 μl acetonitrile in a microcentrifuge tube. The mixture was vortexed, centrifuged for 5 minutes at 10K RPM, and 135 μl of supernatant was transferred to an injection vial. The recovered supernatant was analyzed by using a liquid chromatography-mass spectrophotometer system (LC-MS) consisting of a Finnigan Deca XP® mass spectrometer with an ESI probe at the positive ion mode. HPLC separation was carried out on a Luna 3μ C8 (2)® 3×50 mm column with a gradient decreasing from 100% A to 80% B for 10 minutes at a flow rate of 0.25 ml/min. Buffer A was 0.1% acetic acid in water and buffer B was 0.1% acetic acid acetonitrile.

The target of a further series is T5, hSSTR-1 (Homo sapiens, UniProt P30872).
T5 construct: expressed in transfected cells; host or cells: CHO-K1
T5 sequence (P30872 whole entry): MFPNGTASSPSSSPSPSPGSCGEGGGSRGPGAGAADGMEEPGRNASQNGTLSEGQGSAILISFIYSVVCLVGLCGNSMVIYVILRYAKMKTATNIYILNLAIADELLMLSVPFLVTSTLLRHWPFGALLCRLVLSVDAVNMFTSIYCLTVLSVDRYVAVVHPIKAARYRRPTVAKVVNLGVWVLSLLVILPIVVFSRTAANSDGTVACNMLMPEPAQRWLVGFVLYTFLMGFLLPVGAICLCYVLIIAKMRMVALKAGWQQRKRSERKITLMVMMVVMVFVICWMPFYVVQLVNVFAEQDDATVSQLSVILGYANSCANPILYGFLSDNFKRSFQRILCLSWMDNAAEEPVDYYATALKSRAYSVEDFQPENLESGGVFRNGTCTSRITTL
Nature of the series: Somatostatin receptor radioligand binding, hSSTR-1 (CHO-K1 membranes). The following applies: read-out: Ki hSSTR1 ± (SEM). The method, then:
Membranes for in vitro receptor binding assays were obtained by homogenizing (Polytron setting 6, 15 sec) CHO-K1 cells expressing human somatostatin receptor subtypes hSSTR-1, hSSTR-2, hSSTR-3, hSSTR-4 or hSSTR-5 in ice-cold 50 mM Tris-HCl. The homogenized cells were centrifuged twice at 39,000 g for 10 minutes with an intermediate resuspension in fresh buffer. The final pellets were resuspended in 10 mM Tris-HCl to prepare the cell membrane homogenate for use in the binding assay.
The final assay volume was 0.3 ml.
The cell membrane homogenate was incubated with the radioligands for 90 minutes at 25° C. The incubations were terminated by rapid filtration through GF/C filters pre-soaked in 0.3% polyethylenimine using a Brandel® filtration manifold (Gaithersberg, Md., U.S.A.). Each tube and filter was washed three times with 5-ml aliquots of ice-cold buffer. Specific binding was defined as the total radioligand bound minus that bound in the presence of 1000 nM SRIF-14 (for hSSTR-1, hSSTR-3, hSSTR-4 or hSSTR-5), or 1000 nM DPhe-c(Cys-Tyr-D-Trp-Lys-Abu-Cys)-Thr-NH2 for hSSTR-2.

Series [2] is described as follows: Half-life determination in mouse plasma (LC-MS). Format: in vitro ADME. The following applies: 37° C. The method, then: as §1
The next series deals with T6, bombesin/GRP receptor (Rattus norvegicus, UniProt P52500).
T6 construct: AR42J rat pancreas cells expressing the native bombesin/GRP receptor; endogenous in cells; host or cells: AR42J rat pancreas cells
T6 sequence (P52500 whole entry): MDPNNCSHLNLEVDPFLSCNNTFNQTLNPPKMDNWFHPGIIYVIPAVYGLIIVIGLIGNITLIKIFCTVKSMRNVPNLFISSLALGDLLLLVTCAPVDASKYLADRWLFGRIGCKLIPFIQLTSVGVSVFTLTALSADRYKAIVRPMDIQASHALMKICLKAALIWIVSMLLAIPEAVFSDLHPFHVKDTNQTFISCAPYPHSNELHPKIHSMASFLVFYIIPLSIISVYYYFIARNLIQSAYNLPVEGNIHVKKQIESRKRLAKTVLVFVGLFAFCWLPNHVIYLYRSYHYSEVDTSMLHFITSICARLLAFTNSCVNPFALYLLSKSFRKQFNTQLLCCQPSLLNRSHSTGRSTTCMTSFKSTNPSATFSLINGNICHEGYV
Briefly: Bombesin/GRP radioligand binding (AR42J rat pancreas cell membranes). The following applies: read-out: Ki bombesin receptor ± (SEM). The method, then:
Membranes were prepared for radioligand binding studies by homogenization of AR42J rat pancreas cells expressing the native bombesin/GRP receptor in 20 ml of ice-cold 50 mM Tris-HCl with a Brinkman Polytron® (Westbury, N.Y., U.S.A.) at settings of 6, 15 seconds. The homogenates were washed twice by centrifugation (39,000 g/10 minutes) and the final pellets were resuspended in 50 mM Tris-HCl containing 2.5 mM MgCl2 and 0.1% BSA. […] The filters were then washed three times with 5-ml aliquots of ice-cold 50 mM Tris-HCl. The bound radioactivity trapped on the filters was counted by gamma spectrometry (Wallac LKB®, Gaithersburg, Md., U.S.A.).

Numbered stars: 1 amine (or outer) side, 2 acyl side, 3 side chain; on linkers, the order of the positions; unused ones are H or OH. Bridge positions count the residues as written; N and C are the ends. Square brackets hold non-standard residues; d marks the D form. Peptide text beside a SMILES is read from it. * marks the point of attachment. Pipz(1-CH2CO,4-CH2CH2NH) = O=C(CN1CCN(CCN[*:1])CC1)[*:2]; X1 = CC[C@@]1(O*)C(=O)OCc2c1cc1n(c2=O)Cc2cc3ccccc3nc2-1; Tyr(3-I) = N[C@@H](Cc1ccc(O)c(I)c1)C(=O)O; Glutaryl = O=C(CCCC(=O)[*:2])[*:1]; Suc = O=C(CCC(=O)[*:2])[*:1]; Nle = CCCC[C@H](N)C(=O)O; Abu = CC[C@H](N)C(=O)O; AEEA = NCCOCCOCC(=O)O; Ava = NCCCCC(=O)O; GABA = NCCCC(=O)O; βAla = NCCC(=O)O

T1 sequence (P32745 whole entry): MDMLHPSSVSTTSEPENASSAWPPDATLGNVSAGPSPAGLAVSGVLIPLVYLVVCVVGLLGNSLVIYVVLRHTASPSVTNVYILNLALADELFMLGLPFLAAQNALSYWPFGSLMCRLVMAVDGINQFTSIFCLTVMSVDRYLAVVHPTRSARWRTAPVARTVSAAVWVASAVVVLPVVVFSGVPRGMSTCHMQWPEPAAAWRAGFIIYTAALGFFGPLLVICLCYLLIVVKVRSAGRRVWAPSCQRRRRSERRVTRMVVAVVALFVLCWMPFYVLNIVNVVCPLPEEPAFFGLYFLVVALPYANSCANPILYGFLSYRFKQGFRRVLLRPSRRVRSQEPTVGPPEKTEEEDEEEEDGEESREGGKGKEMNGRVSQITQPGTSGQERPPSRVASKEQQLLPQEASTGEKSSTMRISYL
Protocol for hSSTR-2: (§2) For the hSSTR-1, hSSTR-3, and hSSTR-4 assays, aliquots of the membrane preparations were incubated for 90 minutes at 25° C. with 0.05 nM [^125I-Tyr11]SRIF-14 in 50 mM HEPES (pH 7.4) buffer containing 0.2% BSA and 5 mM MgCl2. The final assay volume was 0.3 ml. For the hSSTR-2 and hSSTR-5 assays, [^125I]-[4-(2-hydroxyethyl)]-1-piperazinylacetyl-D-Phe-c(Cys-Tyr-D-Trp-Lys-Abu-Cys)-Thr-NH2 (0.05 nM) and [^125I]-D-Phe-c(Cys-Tyr-D-Trp-Lys-Val-Cys)-Thr-NH2 were employed as the radioligands, respectively.
Protocol for hSSTR-3: as §2
Protocol for hSSTR-4: as §2
Protocol for hSSTR-5: as §2

Regarding `CC[C@@H]1NC(=O)[C@H](CCCCN)NC(=O)[C@@H](Cc2c[nH]c3ccccc23)NC(=O)[C@H](Cc2ccc(O)c(I)c2)NC(=O)[C@@H](NC(=O)[C@@H](Cc2ccc(O)cc2)NC(=O)[C@@H](Cc2ccc(O)cc2)NC(=O)[C@H](CCCCN)NC(=O)COCCOCCNC(=O)COCCOCCNC(=O)COCCOCCNC(=O)COCCOCCNC(=O)COCCOCCNC(=O)COCCOCCNC(=O)CCCC(=O)NCC(=O)O[C@]2(CC)C(=O)OCc3c2cc2n(c3=O)Cc3cc4ccccc4nc3-2)CSSC[C@@H](C(=O)N[C@H](C(N)=O)[C@@H](C)O)NC1=O` [Example 2, Camptothecin-rvGly-Glut-(Doc)6-Lys-D-Tyr-D-Tyr-c(Cys-3-(I)Tyr-D-Trp-Lys-Abu-Cys)-Thr-NH2] ({X1-Gly-Glutaryl-AEEA-AEEA-AEEA-AEEA-AEEA-AEEA}-K[dY][dY]C[Tyr(3-I)][dW]K[Abu]CT-NH2; disulfide 4-9), the Ki (commonly the dissociation constant of the complex between target and ligand, obtained from inhibition or displacement) at hSSTR-3 is 125 nM; on hSSTR-4 it was ≥ 1000 nM; at hSSTR-5, 3 nM; on hSSTR-2 it was 0.36 nM; on hSSTR-1 it was ≥ 1000 nM. For the same compound, the values for the half-life in series [1] and in series [2] were 2.2 h and 4.6 h, respectively.

In the case of `CC[C@@H]1NC(=O)[C@H](CCCCN)NC(=O)[C@@H](Cc2c[nH]c3ccccc23)NC(=O)[C@H](Cc2ccc(O)cc2)NC(=O)[C@@H](NC(=O)[C@@H](Cc2ccccc2)NC(=O)CN2CCN(CCNC(=O)COCCOCCNC(=O)COCCOCCNC(=O)COCCOCCNC(=O)COCCOCCNC(=O)CCC(=O)NCCCCCCCCC(=O)O[C@]3(CC)C(=O)OCc4c3cc3n(c4=O)Cc4cc5ccccc5nc4-3)CC2)CSSC[C@@H](C(=O)N[C@H](C(N)=O)[C@@H](C)O)NC1=O` [Example 17, Camptothecin-rvAnc-Suc-(Doc)4-Aepa-D-Phe-cyclo(Cys-Tyr-D-Trp-Lys-Abu-Cys)-Thr-NH2], the Ki on hSSTR-5 and at hSSTR-1 was ≥ 1000 nM each time. Further, the half-life (usually the time needed for the level to fall by half in the phase considered) was 28.6 h in series [1] and 15.6 h in series [2].

With `CC[C@@H]1NC(=O)[C@H](CCCCN)NC(=O)[C@@H](Cc2c[nH]c3ccccc23)NC(=O)[C@H](Cc2ccc(O)cc2)NC(=O)[C@@H](NC(=O)[C@@H](Cc2ccccc2)NC(=O)CN2CCN(CCNC(=O)COCCOCCNC(=O)COCCOCCNC(=O)COCCOCCNC(=O)COCCOCCNC(=O)CCC(=O)NCCCCCCC(=O)O[C@]3(CC)C(=O)OCc4c3cc3n(c4=O)Cc4cc5ccccc5nc4-3)CC2)CSSC[C@@H](C(=O)N[C@H](C(N)=O)[C@@H](C)O)NC1=O` [Example 18, Camptothecin-rvAhp-Suc-(Doc)4-Aepa-D-Phe-cyclo(Cys-Tyr-D-Trp-Lys-Abu-Cys)-Thr-NH2], the Ki at hSSTR-5 and at hSSTR-1 was ≥ 1000 nM throughout. The half-life is 8 h in series [1] and 16.2 h in series [2].

Regarding `CCCC[C@H](NC(=O)[C@H](CC(C)C)NC(=O)[C@H](Cc1c[nH]cn1)NC(=O)CCNC(=O)[C@@H](NC(=O)[C@H](C)NC(=O)[C@H](Cc1c[nH]c2ccccc12)NC(=O)[C@H](CCC(N)=O)NC(=O)CCCCCNC(=O)CN1CCN(CCNC(=O)COCCOCCNC(=O)COCCOCCNC(=O)COCCOCCNC(=O)COCCOCCNC(=O)CCC(=O)NCC(=O)O[C@]2(CC)C(=O)OCc3c2cc2n(c3=O)Cc3cc4ccccc4nc3-2)CC1)C(C)C)C(N)=O` [Example 21, Camptothecin-rvGly-Suc-(Doc)4-Aepa-Ahx-Gln-Trp-Ala-Val-β-Ala-His-Leu-Nle-NH2], the half-life was 3.2 h in series [1] and 5.4 h in series [2]. Further, the Ki at bombesin/GRP receptor was 1.9 nM.

For the compound `CCCC[C@H](NC(=O)[C@H](CC(C)C)NC(=O)[C@H](Cc1c[nH]cn1)NC(=O)CCNC(=O)[C@@H](NC(=O)[C@H](C)NC(=O)[C@H](Cc1c[nH]c2ccccc12)NC(=O)[C@H](CCC(N)=O)NC(=O)CCCNC(=O)[C@H](CC(C)C)NC(=O)CN1CCN(CCNC(=O)COCCOCCNC(=O)COCCOCCNC(=O)COCCOCCNC(=O)COCCOCCNC(=O)CCC(=O)NCC(=O)O[C@]2(CC)C(=O)OCc3c2cc2n(c3=O)Cc3cc4ccccc4nc3-2)CC1)C(C)C)C(N)=O` [Example 22, Camptothecin-rvGly-Suc-(Doc)4-Aepa-Leu-Gaba-Gln-Trp-Ala-Val-β-Ala-His-Leu-Nle-NH2] ({X1-Gly-Suc-AEEA-AEEA-AEEA-AEEA}-[Pipz(1-CH2CO,4-CH2CH2NH)]L[GABA]QWAV[βAla]HL[Nle]-NH2), the half-life in series [1] was 1.8 h; in series [2] it was 2.1 h. Besides, the Ki on bombesin/GRP receptor stood at 18.2 nM.

As to `CCCC[C@H](NC(=O)[C@H](CC(C)C)NC(=O)[C@H](Cc1c[nH]cn1)NC(=O)CCNC(=O)[C@@H](NC(=O)[C@H](C)NC(=O)[C@H](Cc1c[nH]c2ccccc12)NC(=O)[C@H](CCC(N)=O)NC(=O)[C@H](CC(N)=O)NC(=O)CCCNC(=O)CN1CCN(CCNC(=O)COCCOCCNC(=O)COCCOCCNC(=O)COCCOCCNC(=O)COCCOCCNC(=O)CCC(=O)NCC(=O)O[C@]2(CC)C(=O)OCc3c2cc2n(c3=O)Cc3cc4ccccc4nc3-2)CC1)C(C)C)C(N)=O` [Example 23, Camptothecin-rvGly-Suc-(Doc)4-Aepa-Gaba-Asn-Gln-Trp-Ala-Val-β-Ala-His-Leu-Nle-NH2] ({X1-Gly-Suc-AEEA-AEEA-AEEA-AEEA}-[Pipz(1-CH2CO,4-CH2CH2NH)][GABA]NQWAV[βAla]HL[Nle]-NH2), the half-life was 4.2 h in series [1] and 2.9 h in series [2]. The Ki at bombesin/GRP receptor is 7.65 nM.

Consider `CCCC[C@H](NC(=O)[C@H](CC(C)C)NC(=O)[C@H](Cc1c[nH]cn1)NC(=O)CCNC(=O)[C@@H](NC(=O)[C@H](C)NC(=O)[C@H](Cc1c[nH]c2ccccc12)NC(=O)[C@H](CCC(N)=O)NC(=O)[C@H](CC(N)=O)NC(=O)CCCCNC(=O)CN1CCN(CCNC(=O)COCCOCCNC(=O)COCCOCCNC(=O)COCCOCCNC(=O)COCCOCCNC(=O)CCC(=O)NCC(=O)O[C@]2(CC)C(=O)OCc3c2cc2n(c3=O)Cc3cc4ccccc4nc3-2)CC1)C(C)C)C(N)=O` [Example 24, Camptothecin-rvGly-Suc-(Doc)4-Aepa-Apn-Asn-Gln-Trp-Ala-Val-β-Ala-His-Leu-Nle-NH2] ({X1-Gly-Suc-AEEA-AEEA-AEEA-AEEA}-[Pipz(1-CH2CO,4-CH2CH2NH)][Ava]NQWAV[βAla]HL[Nle]-NH2), for which the half-life in series [1] was 4.6 h; in series [2], 2.6 h. Besides, at bombesin/GRP receptor, the Ki came to 4.07 nM.

Consider `CCCC[C@H](NC(=O)[C@H](CC(C)C)NC(=O)[C@H](Cc1c[nH]cn1)NC(=O)CCNC(=O)[C@@H](NC(=O)[C@H](C)NC(=O)[C@H](Cc1c[nH]c2ccccc12)NC(=O)[C@H](CCC(N)=O)NC(=O)[C@@H](Cc1ccc(O)cc1)NC(=O)[C@@H](CO)NC(=O)CN1CCN(CCNC(=O)COCCOCCNC(=O)COCCOCCNC(=O)COCCOCCNC(=O)COCCOCCNC(=O)CCC(=O)NCC(=O)O[C@]2(CC)C(=O)OCc3c2cc2n(c3=O)Cc3cc4ccccc4nc3-2)CC1)C(C)C)C(N)=O` [Example 27, Camptothecin-rvGly-Suc-(Doc)4-Aepa-D-Ser-D-Tyr-Gln-Trp-Ala-Val-β-Ala-His-Leu-Nle-NH2] ({X1-Gly-Suc-AEEA-AEEA-AEEA-AEEA}-[Pipz(1-CH2CO,4-CH2CH2NH)][dS][dY]QWAV[βAla]HL[Nle]-NH2), for which the half-life in series [1] was 4.5 h; in series [2] it was 3.8 h. The Ki at bombesin/GRP receptor stood at 3.96 nM.
